T1: EsCas13d, nuclease-dead (Eubacterium siraeum, UniProt B0MS50, R295A;H300A;R849A;H854A)
T1 sequence: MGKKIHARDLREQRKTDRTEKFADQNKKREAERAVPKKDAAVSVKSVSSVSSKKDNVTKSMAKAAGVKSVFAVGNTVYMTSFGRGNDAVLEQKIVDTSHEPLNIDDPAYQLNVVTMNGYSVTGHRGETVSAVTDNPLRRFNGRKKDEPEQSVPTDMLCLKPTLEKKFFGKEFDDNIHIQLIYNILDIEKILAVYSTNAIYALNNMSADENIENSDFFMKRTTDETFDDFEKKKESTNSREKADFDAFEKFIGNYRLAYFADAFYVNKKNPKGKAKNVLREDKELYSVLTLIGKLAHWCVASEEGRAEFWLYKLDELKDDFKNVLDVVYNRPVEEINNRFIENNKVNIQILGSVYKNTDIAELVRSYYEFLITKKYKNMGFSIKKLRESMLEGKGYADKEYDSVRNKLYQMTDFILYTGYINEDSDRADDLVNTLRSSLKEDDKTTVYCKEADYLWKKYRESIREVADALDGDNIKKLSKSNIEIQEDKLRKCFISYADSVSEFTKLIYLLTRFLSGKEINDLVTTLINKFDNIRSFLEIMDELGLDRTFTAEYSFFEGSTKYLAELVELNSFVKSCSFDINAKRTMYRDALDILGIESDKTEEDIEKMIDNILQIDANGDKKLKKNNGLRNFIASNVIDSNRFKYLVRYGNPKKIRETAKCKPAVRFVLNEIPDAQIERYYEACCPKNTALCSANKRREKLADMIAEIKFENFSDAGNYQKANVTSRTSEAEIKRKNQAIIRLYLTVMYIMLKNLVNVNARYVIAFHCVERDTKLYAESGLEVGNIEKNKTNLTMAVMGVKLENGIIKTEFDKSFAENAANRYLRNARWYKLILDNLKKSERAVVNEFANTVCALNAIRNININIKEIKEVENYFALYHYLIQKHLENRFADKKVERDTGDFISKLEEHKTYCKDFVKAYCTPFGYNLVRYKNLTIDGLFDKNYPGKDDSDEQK


Each binder was assayed against T1, EsCas13d, nuclease-dead (assay: crRNA (strand 1, pre-loaded); Mg2+; 40 mM Tris-HCl pH 7.5, 150 mM NaCl, 6 mM MgCl2, 1 mM DTT, 0.1% Tween-20, 0.2 mg/ml BSA; 25 C; 10 min per concentration, then washed). Details: tags: His6-TwinStrep-SUMO cleaved; N-terminal SNAP kept (SNAP-Surface 488); label: 3' end held by stalled T7 RNA polymerase.

Binder | Kd [nM]
target 1 MT 5'PFS UUA 3'PFS CGC (mixed) RNA 1: CACCCGUGCAAAAAUGCAGGGGUCUAAAACUGAGCGGAUAACCUCUCUAUGG RNA 2: GGGAAUGGAUCCACAUCUACGAAUUCUUACCAUAGAGAGGUUAUCCGCUCACGCAGAUCGGAAGAGCACACGU | 18 ± 7
target 1 MT 5'PFS AAA 3'PFS ACG (mixed) RNA 1: CACCCGUGCAAAAAUGCAGGGGUCUAAAACUGAGCGGAUAACCUCUCUAUGG RNA 2: GGGAAUGGAUCCACAUCUACGAAUUCAAACCAUAGAGAGGUUAUCCGCUCAACGAGAUCGGAAGAGCACACGU | 18.6 ± 4.45
target 1 MT 5'PFS CCG 3'PFS CAC (mixed) RNA 1: CACCCGUGCAAAAAUGCAGGGGUCUAAAACUGAGCGGAUAACCUCUCUAUGG RNA 2: GGGAAUGGAUCCACAUCUACGAAUUCCCGCCAUAGAGAGGUUAUCCGCUCACACAGAUCGGAAGAGCACACGU | 6.45 ± 2.75
target 1 MT 5'PFS UUA 3'PFS AUG (mixed) RNA 1: CACCCGUGCAAAAAUGCAGGGGUCUAAAACUGAGCGGAUAACCUCUCUAUGG RNA 2: GGGAAUGGAUCCACAUCUACGAAUUCUUACCAUAGAGAGGUUAUCCGCUCAAUGAGAUCGGAAGAGCACACGU | 64.5 ± 23
target 1 MT 5'PFS GCA 3'PFS UCA (mixed) RNA 1: CACCCGUGCAAAAAUGCAGGGGUCUAAAACUGAGCGGAUAACCUCUCUAUGG RNA 2: GGGAAUGGAUCCACAUCUACGAAUUCGCACCAUAGAGAGGUUAUCCGCUCAUCAAGAUCGGAAGAGCACACGU | 11.8 ± 2.9
target 1 MT 5'PFS CCU 3'PFS AGA (mixed) RNA 1: CACCCGUGCAAAAAUGCAGGGGUCUAAAACUGAGCGGAUAACCUCUCUAUGG RNA 2: GGGAAUGGAUCCACAUCUACGAAUUCCCUCCAUAGAGAGGUUAUCCGCUCAAGAAGAUCGGAAGAGCACACGU | 31.5 ± 14.5
target 1 MT 5'PFS UUA 3'PFS AUC (mixed) RNA 1: CACCCGUGCAAAAAUGCAGGGGUCUAAAACUGAGCGGAUAACCUCUCUAUGG RNA 2: GGGAAUGGAUCCACAUCUACGAAUUCUUACCAUAGAGAGGUUAUCCGCUCAAUCAGAUCGGAAGAGCACACGU | 20.5 ± 5
target 1 insG 3' of 18,insG 3' of 10 (mixed) RNA 1: CACCCGUGCAAAAAUGCAGGGGUCUAAAACUGAGCGGAUAACCUCUCUAUGG RNA 2: GGGAAUGGAUCCACAUCUACGAAUUCGUACCAUAGGAGAGGUUGAUCCGCUCACCGAGAUCGGAAGAGCACACGU | 61 ± 15
target 1 MT 5'PFS AAA 3'PFS ACA (mixed) RNA 1: CACCCGUGCAAAAAUGCAGGGGUCUAAAACUGAGCGGAUAACCUCUCUAUGG RNA 2: GGGAAUGGAUCCACAUCUACGAAUUCAAACCAUAGAGAGGUUAUCCGCUCAACAAGAUCGGAAGAGCACACGU | 29.5 ± 14
target 1 MT 5'PFS UUA 3'PFS AUA (mixed) RNA 1: CACCCGUGCAAAAAUGCAGGGGUCUAAAACUGAGCGGAUAACCUCUCUAUGG RNA 2: GGGAAUGGAUCCACAUCUACGAAUUCUUACCAUAGAGAGGUUAUCCGCUCAAUAAGAUCGGAAGAGCACACGU | 77 ± 25
target 1 MT 5'PFS GCA 3'PFS UCG (mixed) RNA 1: CACCCGUGCAAAAAUGCAGGGGUCUAAAACUGAGCGGAUAACCUCUCUAUGG RNA 2: GGGAAUGGAUCCACAUCUACGAAUUCGCACCAUAGAGAGGUUAUCCGCUCAUCGAGAUCGGAAGAGCACACGU | 13.7 ± 2.4
target 1 MT 5'PFS AAG 3'PFS AAG (mixed) RNA 1: CACCCGUGCAAAAAUGCAGGGGUCUAAAACUGAGCGGAUAACCUCUCUAUGG RNA 2: GGGAAUGGAUCCACAUCUACGAAUUCAAGCCAUAGAGAGGUUAUCCGCUCAAAGAGAUCGGAAGAGCACACGU | 20.5 ± 4.5
target 1 MT 5'PFS AAA 3'PFS ACC (mixed) RNA 1: CACCCGUGCAAAAAUGCAGGGGUCUAAAACUGAGCGGAUAACCUCUCUAUGG RNA 2: GGGAAUGGAUCCACAUCUACGAAUUCAAACCAUAGAGAGGUUAUCCGCUCAACCAGAUCGGAAGAGCACACGU | 42 ± 13.5

Source: paper PMC10786891, “Massively parallel profiling of RNA-targeting CRISPR-Cas13d”
